Reference: patent CN116239682A (WUHAN INST OF BIOLOGICAL PRODUCTS CO LTD, dated 2023)

Experiments:
[1] = biological target: T1, CV-A4结构蛋白VP1的1号肽段 (VP1前1-15氨基酸) (Coxsackievirus A4); test: indirect ELISA on coated overlapping VP1 peptides, 7H11E 1μg/ml
T1 construct: Synthetic peptide; also called VP1 1-15
T1 peptide: GDAIADAIQNTVTTT

[2] = biological target: T2, VP1-7A-G (Coxsackievirus A4); test: indirect ELISA on coated mutant peptide (+ means ELISA positive)
T2 construct: Synthetic single-site mutant peptide; also called VP1 1-15 peptide, position 7 A-G
T2 peptide: GDAIADGIQNTVTTT

[3] = biological target: T3, VP1-8I-G (Coxsackievirus A4); test: as above
T3 construct: Synthetic single-site mutant peptide; also called VP1 1-15 peptide, position 8 I-G
T3 peptide: GDAIADAGQNTVTTT

[4] = biological target: T4, VP1-9Q-G (Coxsackievirus A4); test: as above
T4 construct: Synthetic single-site mutant peptide; also called VP1 1-15 peptide, position 9 Q-G
T4 peptide: GDAIADAIGNTVTTT

[5] = biological target: T5, VP1-10N-G (Coxsackievirus A4); test: as above
T5 construct: Synthetic single-site mutant peptide; also called VP1 1-15 peptide, position 10 N-G
T5 peptide: GDAIADAIQGTVTTT

[6] = biological target: T6, VP1-11T-G (Coxsackievirus A4); test: as above
T6 construct: Synthetic single-site mutant peptide; also called VP1 1-15 peptide, position 11 T-G
T6 peptide: GDAIADAIQNGVTTT

[7] = biological target: T7, VP1-12V-G (Coxsackievirus A4); test: as above
T7 construct: Synthetic single-site mutant peptide; also called VP1 1-15 peptide, position 12 V-G
T7 peptide: GDAIADAIQNTGTTT

[8] = biological target: T8, VP1-13T-G (Coxsackievirus A4); test: as above
T8 construct: Synthetic single-site mutant peptide; also called VP1 1-15 peptide, position 13 T-G
T8 peptide: GDAIADAIQNTVGTT

[9] = biological target: T9, VP1-14T-G (Coxsackievirus A4); test: as above
T9 construct: Synthetic single-site mutant peptide; also called VP1 1-15 peptide, position 14 T-G
T9 peptide: GDAIADAIQNTVTGT

[10] = biological target: T10, VP1-15T-G (Coxsackievirus A4); test: as above
T10 construct: Synthetic single-site mutant peptide; also called VP1 1-15 peptide, position 15 T-G
T10 peptide: GDAIADAIQNTVTTG

[11] = biological target: T11, VP1-5A-G (Coxsackievirus A4); test: as above
T11 construct: Synthetic single-site mutant peptide; also called VP1 1-15 peptide, position 5 A-G
T11 peptide: GDAIGDAIQNTVTTT

[12] = biological target: T12, VP1-2D-G (Coxsackievirus A4); test: indirect ELISA on coated mutant peptide (- means ELISA negative)
T12 construct: Synthetic single-site mutant peptide; also called VP1 1-15 peptide, position 2 D-G
T12 peptide: GGAIADAIQNTVTTT

[13] = biological target: T13, VP1-3A-G (Coxsackievirus A4); test: as above
T13 construct: Synthetic single-site mutant peptide; also called VP1 1-15 peptide, position 3 A-G
T13 peptide: GDGIADAIQNTVTTT

[14] = biological target: T14, VP1-4I-G (Coxsackievirus A4); test: as above
T14 construct: Synthetic single-site mutant peptide; also called VP1 1-15 peptide, position 4 I-G
T14 peptide: GDAGADAIQNTVTTT

[15] = biological target: T15, VP1-6D-G (Coxsackievirus A4); test: as above
T15 construct: Synthetic single-site mutant peptide; also called VP1 1-15 peptide, position 6 D-G
T15 peptide: GDAIAGAIQNTVTTT

B1: 单克隆抗体7H11E (antibody, V domains shown)
VH: SGPGLVAPSQSLSITCTVSGFSLPSYDVHWVRQPPGKGLEWLGVIWAGGSTHYNSALMSRLSISKDNSKSQVFLKMNSLQTDDTAMYYCAGLRAFAMDYWGQGTSVTVSS
VL: PIVLTQSPAILSVSPGERVSFSCRASQSIGTNIHWYQQGANGSPRLLIKYASESISGIPSRFSGSGSGTDFTLSINSVESEDIADYYCQQSNSWPWTFGGGTKLEIQR
notes: Mouse hybridoma antibody purified from ascites, IgG2b subtype; also called 7H11E单克隆抗体
B1: binds [1]; binds [2]; binds [3]. B1: binds [4]; binds [5]; binds [6]. B1: binds [7]; binds [8]; binds [9]. B1: binds [10]; binds [11]; no binding [12]. B1: no binding [13]; no binding [14]; no binding [15].
